Like-named read-outs stand apart in the source and are kept apart here.
How the values were obtained:
[1] = molecular target: T1, BV2541 (recombinant CoV S glycoprotein, BA.4) (SARS-CoV-2, UniProt P0DTC2 14-1273)
[2] = molecular target: T2, BV2562 (recombinant CoV S glycoprotein, BA.4.6) (SARS-CoV-2, UniProt P0DTC2 14-1273)
[3] = molecular target: T3, BV2425 (recombinant CoV S glycoprotein, Alpha) (SARS-CoV-2, UniProt P0DTC2 14-1273); experiment: ELISA on coated rS
[4] = molecular target: T4, BV2438 (recombinant CoV S glycoprotein, Beta) (SARS-CoV-2, UniProt P0DTC2 14-1273); experiment: ELISA on coated rS
[5] = molecular target: T5, BV2443 (recombinant CoV S glycoprotein, Gamma) (SARS-CoV-2, UniProt P0DTC2 14-1273); experiment: ELISA on coated rS
[6] = molecular target: T6, BV2465 (recombinant CoV S glycoprotein, Delta) (SARS-CoV-2, UniProt P0DTC2 14-1273); experiment: ELISA on coated rS
[7] = molecular target: T7, BV2509 (recombinant CoV S glycoprotein, BA.1) (SARS-CoV-2, UniProt P0DTC2 14-1273); experiment: ELISA on coated rS
[8] = molecular target: T8, Delta Plus CoV S glycoprotein (recombinant) (Severe acute respiratory syndrome …, UniProt P0DTC2 14-1273); experiment: ELISA on coated rS
[9] = molecular target: T7, BV2509 (recombinant CoV S glycoprotein, …); experiment: ELISA on coated rS; remark: listed apart in the source
[10] = molecular target: BV2561 (recombinant CoV S glycoprotein, BA.2.75) (SARS-CoV-2, UniProt P0DTC2 14-1273); experiment: ELISA on coated rS
[11] = molecular target: BV2589 (recombinant CoV S glycoprotein, BQ.1.1) (SARS-CoV-2, UniProt P0DTC2 14-1273); experiment: BLI, antibody on anti-mouse Fc biosensor, rS analyte
[12] = molecular target: BV2373 (recombinant CoV S glycoprotein, Prototype) (SARS-CoV-2, UniProt P0DTC2 14-1273); experiment: hACE2 receptor inhibition ELISA on coated rS; competitor hACE2-His
[13] = molecular target: T3, BV2425 (recombinant CoV S glycoprotein, …); experiment: as above
[14] = molecular target: T4, BV2438 (recombinant CoV S glycoprotein, …); experiment: as above
[15] = molecular target: T5, BV2443 (recombinant CoV S glycoprotein, …); experiment: as above
[16] = molecular target: T6, BV2465 (recombinant CoV S glycoprotein, …); experiment: as above
[17] = molecular target: T7, BV2509 (recombinant CoV S glycoprotein, …); experiment: as above
[18] = molecular target: T5, BV2443 (recombinant CoV S glycoprotein, …)
[19] = molecular target: T1, BV2541 (recombinant CoV S glycoprotein, …); experiment: ELISA on coated rS
[20] = molecular target: T2, BV2562 (recombinant CoV S glycoprotein, …); experiment: ELISA on coated rS
[21] = molecular target: T8, Delta Plus CoV S glycoprotein …
[22] = molecular target: T3, BV2425 (recombinant CoV S glycoprotein, …); experiment: ELISA, plate coated with rS, serial dilution of the mAb, anti-mouse HRP, A450
[23] = molecular target: T4, BV2438 (recombinant CoV S glycoprotein, …); experiment: as above
[24] = molecular target: T5, BV2443 (recombinant CoV S glycoprotein, …); experiment: as above
[25] = molecular target: T6, BV2465 (recombinant CoV S glycoprotein, …); experiment: as above
[26] = molecular target: T7, BV2509 (recombinant CoV S glycoprotein, …); experiment: as above

B1: 35.13 (antibody, V domains shown)
VH: QVQLQQSGAELGKPGASVKLSCRASGYTFTRYYIYWVKQRPGQGLEWIGEINPSNGDTHFNEKFKTKATLTVDKSSSSAHIHLTSLTSEDSAVYYCSIHAYSFDFWGQGTTLTVSS
VL: EIQMTQSPSSMSASLGDRITITCQATQDIVKNLNWYQQKPGKPPSFLIYHATELAKGVPSRFSGSGSGSDYSLTISNLESEDFADYYCLQFYDFPFTFGAGTKLELKR
IC50 [1]: > 3 µg/mL
IC50 [2]: > 3 µg/mL
EC50 [3]: 0.011 µg/mL
EC50 [4]: 0.119 µg/mL
EC50 [5]: 0.012 µg/mL
EC50 [6]: 0.01 µg/mL
EC50 [7]: 0.05 µg/mL
EC50 [8]: 0.011 µg/mL
EC50 [9]: 0.038 µg/mL
EC50 [10]: 0.048 µg/mL
Kd [11]: < 1 pM
koff [11]: < 1e-07 s⁻¹
kon [11]: 26900 M⁻¹ s⁻¹
IC50 [12]: 0.074 µg/mL
IC50 [13]: 0.142 µg/mL
IC50 [14]: 0.922 µg/mL
IC50 [15]: 0.07 µg/mL
IC50 [16]: 0.098 µg/mL
IC50 [17]: 0.102 µg/mL

B2: 425.6 (antibody, V domains shown)
VH: VQLKQSGPSLVQPSQSLSITCTVSGFSLTSYGIHWVRQSPGKGLEWLGVIWRGGSTDYNAAFMSRLTITKDNSKSQVFFKMNSLQADDTAIYYCATHTEGDDVDYWGQGTSVTVSS
VL: QIVLTQSPAIMSVSPGEKVTMTCSASSTMSFMYWYQQKPGSSPRLLIYDTSNLASGVPVRFSGSGSGTSYSLTISRVEAEDAATYYCQQWNTYPLTFGAGTKLELKR
Kd (BV2457 (rS India)): < 1 pM
koff (BV2457 (rS India)): 1.88e-07 s⁻¹
kon (BV2457 (rS India)): 117000 M⁻¹ s⁻¹
Kd [18]: 3.52 pM
EC50 [19]: 0.016 µg/mL
EC50 [20]: 0.021 µg/mL
IC50 [12]: 0.064 µg/mL
IC50 [13]: 0.1 µg/mL
IC50 [14]: 0.048 µg/mL
IC50 [15]: 0.048 µg/mL
IC50 [16]: 0.069 µg/mL
IC50 [17]: > 3 µg/mL

B3: 322.3 (antibody, V domains shown)
VH: RVQLQQSGPELVKPGASVTISCKASGYIFTSDYIHWVKQRPGQGPEWIGWIYPGNINTKYNEKFKGKATLTADKSSSTAYMQLSSLTSEDSAVYFCARDDGNLYYYAMDYWGQGTSVTVSS
VL: NIVLTQSPASLAVSLGQRATISCRASESVDSYGSSFMHWYQQKPGQPPKLLIYLASNLESGVPARFSGSGSRTDFTLTIDPVEADDAATYYCQQNNEDPRTFGGGTKLEIK
EC50 [21]: 0.054 µg/mL
EC50 [9]: 0.197 µg/mL
EC50 [19]: 0.082 µg/mL
EC50 [10]: 0.144 µg/mL
EC50 [20]: 0.117 µg/mL
Kd [11]: 1.63 pM
EC50 [22]: 0.085 µg/mL
EC50 [23]: 0.084 µg/mL
EC50 [24]: 0.084 µg/mL
EC50 [25]: 0.082 µg/mL
EC50 [26]: 0.144 µg/mL

From patent publication US20250066456A1 (NOVAVAX, published 2025)
